The supplement of paper PMC9112550, “Optimization of the antimicrobial peptide Bac7 by deep mutational scanning” (BMC Biology, 2022)

System: Escherichia coli TOP10
Experiment: shrunken log2 fold change of peptide-encoding DNA abundance (4.5 h post-induction vs induction); higher = less antimicrobial activity (less host growth inhibition)
Settings: time post-induction: 4.5 h; library: site-saturation at positions 5, 18, 19, 20
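Also: peptides expressed intracellularly from a pBAD plasmid library in pooled LB shake-flask culture, induced with 0.3% L-arabinose, DNA abundance read by NGS, three biological replicates, DESeq2 with apeglm shrinkage.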

Row | Sequence | shrunken log2 fold change
1 | RRIRCRPPRLPRPRPRPLHFPRP | -0.131
2 | RRIRVRPPRLPRPRPRPWQVPRP | -0.161
3 | RRIRVRPPRLPRPRPRPLATPRP | 0.309
4 | RRIRGRPPRLPRPRPRPKGLPRP | 0.016
5 | RRIRTRPPRLPRPRPRPPAFPRP | -0.216
6 | RRIRWRPPRLPRPRPRPRIYPRP | 0.068
7 | RRIRARPPRLPRPRPRPHEQPRP | 0.257
8 | RRIRERPPRLPRPRPRPSRYPRP | -0.481
9 | RRIRRRPPRLPRPRPRPEAEPRP | 0.853
10 | RRIRMRPPRLPRPRPRPYMGPRP | -0.0411
11 | RRIRFRPPRLPRPRPRPMSCPRP | 0.0282
12 | RRIRLRPPRLPRPRPRPYRIPRP | -0.796
13 | RRIRRRPPRLPRPRPRPMGGPRP | 0.083
14 | RRIRKRPPRLPRPRPRPDMVPRP | -0.00254
15 | RRIRARPPRLPRPRPRPHIHPRP | -0.45
16 | RRIRARPPRLPRPRPRPHHAPRP | 0.0775
17 | RRIRLRPPRLPRPRPRPMPEPRP | 0.221
18 | RRIRPRPPRLPRPRPRPYQLPRP | -0.441
19 | RRIRQRPPRLPRPRPRPGCSPRP | 0.0894
20 | RRIRQRPPRLPRPRPRPWVLPRP | 0.0639
21 | RRIRNRPPRLPRPRPRPKIEPRP | -0.0398
22 | RRIRCRPPRLPRPRPRPHINPRP | -0.501
23 | RRIRSRPPRLPRPRPRPRYQPRP | -0.145

Row | Sequence | shrunken log2 fold change
24 | RRIRFRPPRLPRPRPRPVYFPRP | -0.399
25 | RRIRHRPPRLPRPRPRPGSFPRP | -0.176
26 | RRIRARPPRLPRPRPRPEVGPRP | 1.42
27 | RRIRNRPPRLPRPRPRPIFMPRP | -0.116
28 | RRIRSRPPRLPRPRPRPHVDPRP | -0.0165
29 | RRIRARPPRLPRPRPRPRDCPRP | 0.391
30 | RRIRDRPPRLPRPRPRPPVVPRP | -0.0109
31 | RRIRCRPPRLPRPRPRPNIWPRP | -0.178
32 | RRIRTRPPRLPRPRPRPHKFPRP | -0.18
33 | RRIRWRPPRLPRPRPRPVPMPRP | 0.221
34 | RRIRRRPPRLPRPRPRPQPSPRP | 0.231
35 | RRIRDRPPRLPRPRPRPPYFPRP | -0.0365
36 | RRIRGRPPRLPRPRPRPLTYPRP | 0.279
37 | RRIRGRPPRLPRPRPRPAGVPRP | 0.742
38 | RRIRDRPPRLPRPRPRPWTRPRP | -0.231
39 | RRIRNRPPRLPRPRPRPYLRPRP | -0.0191
40 | RRIRSRPPRLPRPRPRPAAYPRP | 0.269
41 | RRIRVRPPRLPRPRPRPWTIPRP | -0.281
42 | RRIRYRPPRLPRPRPRPCLWPRP | -0.481
43 | RRIRNRPPRLPRPRPRPWYEPRP | -0.0232
44 | RRIRHRPPRLPRPRPRPTCGPRP | 0.0685
45 | RRIRMRPPRLPRPRPRPNNDPRP | -0.0943
46 | RRIRARPPRLPRPRPRPNVDPRP | 0.0662

Row | Sequence | shrunken log2 fold change
47 | RRIRMRPPRLPRPRPRPKFGPRP | -0.0062
48 | RRIRVRPPRLPRPRPRPYQWPRP | -0.175
49 | RRIRGRPPRLPRPRPRPIIFPRP | 0.437
50 | RRIRGRPPRLPRPRPRPWHYPRP | 0.0232
51 | RRIRRRPPRLPRPRPRPQSWPRP | 0.519
52 | RRIRHRPPRLPRPRPRPTDHPRP | -0.487
53 | RRIRWRPPRLPRPRPRPRGNPRP | 0.423
54 | RRIRFRPPRLPRPRPRPDAAPRP | 0.681
55 | RRIRFRPPRLPRPRPRPDADPRP | 0.386
56 | RRIRYRPPRLPRPRPRPMWRPRP | -0.27
57 | RRIRCRPPRLPRPRPRPLKKPRP | -0.26
58 | RRIRCRPPRLPRPRPRPAIEPRP | -0.384
59 | RRIRCRPPRLPRPRPRPRYWPRP | -0.0818
60 | RRIRKRPPRLPRPRPRPWWHPRP | 0.047
61 | RRIRPRPPRLPRPRPRPKEKPRP | 0.264
62 | RRIRTRPPRLPRPRPRPLENPRP | 0.0394
63 | RRIRRRPPRLPRPRPRPRTGPRP | 0.476
64 | RRIRERPPRLPRPRPRPVFQPRP | -0.0545
65 | RRIRERPPRLPRPRPRPQSRPRP | 0.00145
66 | RRIRTRPPRLPRPRPRPWDVPRP | -0.092
67 | RRIRQRPPRLPRPRPRPQMCPRP | 0.109
68 | RRIRMRPPRLPRPRPRPPHGPRP | 1.06
69 | RRIRVRPPRLPRPRPRPKYCPRP | -0.221

Row | Sequence | shrunken log2 fold change
70 | RRIRPRPPRLPRPRPRPEIVPRP | 0.0303
71 | RRIRTRPPRLPRPRPRPSQIPRP | -0.0567
72 | RRIRDRPPRLPRPRPRPVMVPRP | 0.111
73 | RRIRVRPPRLPRPRPRPKGFPRP | -0.00211
74 | RRIRPRPPRLPRPRPRPWWYPRP | -0.121
75 | RRIRPRPPRLPRPRPRPVSKPRP | -0.166
76 | RRIRGRPPRLPRPRPRPLIIPRP | -0.05
77 | RRIRWRPPRLPRPRPRPANEPRP | 0.134
78 | RRIRQRPPRLPRPRPRPAPDPRP | 0.261
79 | RRIRSRPPRLPRPRPRPVHWPRP | 0.138
80 | RRIRWRPPRLPRPRPRPSYCPRP | 0.366
81 | RRIRFRPPRLPRPRPRPMVVPRP | -0.0152
82 | RRIRWRPPRLPRPRPRPEQCPRP | -0.0195
83 | RRIRSRPPRLPRPRPRPEKTPRP | 0.125
84 | RRIRSRPPRLPRPRPRPRKFPRP | 0.015
85 | RRIRERPPRLPRPRPRPKFHPRP | -0.554
86 | RRIRRRPPRLPRPRPRPPEHPRP | 0.14
87 | RRIRIRPPRLPRPRPRPAPLPRP | 0.276
88 | RRIRIRPPRLPRPRPRPSEIPRP | 0.0838
89 | RRIRNRPPRLPRPRPRPTLFPRP | 0.0912
90 | RRIRHRPPRLPRPRPRPFWEPRP | -0.218
91 | RRIRMRPPRLPRPRPRPGWEPRP | 0.888
